Here are results for 1 molecule from patent US20210093714A1, “Combination and method for inhibiting the cancer cells” (NATIONAL TAIWAN UNIVERSITY, priority 2013, published 2021).

The test system of the experiment is lung adenocarcinoma cell line, CL1-5. Description: In vivo anoikis, high-frequency ultrasonic imaging, s.c. CL1-5. Conditions: nude mice, rCCN2 i.p. 1 mg/kg per day, FIG. 5F. An excerpt: Mice were anesthetized with isoflurane inhalation, and biofluorescence images were photographed with a CCD camera (IVIS; Xenogen Corporation, Caliper Life Sciences, Hopkinton, Mass., USA) at specific times. Imaging times ranged from 1 to 60 s, depending on the amount of fluorescence activity. Biofluorescence from the region of interest (ROI) was defined manually, and the data were expressed as photon flux (photons/s/cm^2/steradian). Background photon flux was defined using an ROI from a mouse that was not given an […]. injection of cancer cells. All biofluorescence data were collected and analyzed using IVIS. Celltracker dye was purchased from Molecular Probes, Invitrogen Corporation.
Next, the effect of rCCN2 on anoikis in the lung adenocarcinoma cell line, CL1-5, (in vivo) was observed by high-frequency ultrasonic imaging, the results shown in FIG. 5F(top right indicated as the amplification view of the yellow squares). In this embodiment, the lung adenocarcinoma cell line, CL1-5, was injected into the s.c. region of nude mice and the mice was treated i.p. either with rCCN2 (1 mg/kg per day) or a control solution (citrate buffer), and anoikis in the lung adenocarcinoma cell line, CL1-5,(in vivo) was observed by high-frequency ultrasonic imaging.

B1: Connective tissue growth factor (CCN2), wild-type full length (ligand, human, UniProt P29279 27-349, looked up)
chain: QNCSGPCRCPDEPAPRCPAGVSLVLDGCGCCRVCAKQLGELCTERDPCDPHKGLFCHFGSPANRKIGVCTAKDGAPCIFGGTVYRSGESFQSSCKYQCTCLDGAVGCMPLCSMDVRLPSPDCPFPRRVKLPGKCCEEWVCDEPKDQTVVGPALAAYRLEDTFGPDPTMIRANCLVQTTEWSACSKTCGMGISTRVTNDNASCRLEKQSRLCMVRPCEADLEENIKKGKKCIRTPKISKPIKFELSGCTSMKTYRAKFCGVCTDGRCCTPHRTTTLPVEFKCPDGEVMKKNMMFIKTCACHYNCPGDNDIFESLYYRKMYGDMA
notes: also called Recombinant CCN2; exogenous CCN2
For the molecule B1, the anoikis in vivo result is reported as “clearly appeared anoikis”.
